Fold decrease of binding in pH 6.0 against pH 7.5 and stoichiometry N data for one substance are collected here from publication doi:10.1101/2021.03.08.434320.

The experiment deals with H3K9me2 peptide (ITC). The experiment can be described thus: ITC.

The substance “Arabidopsis thaliana AGDP3 AGD1-4 (1-290) (domain or fragment)” gave a fold decrease of binding in pH 6.0 against pH 7.5 of 5 fold and a stoichiometry N of 1.
